The results in this text go back to patent publication US20260226125A1 (MEDICENNA THERAPEUTICS, published 2026).

For test [1], the target named is T1, human CD25 (IL-2Rα) (human, UniProt P01589 22-240, limits assumed).
T1 construct: Receptor reagent used in SPR; also called interleukin 2 receptor alpha
T1 sequence (looked up): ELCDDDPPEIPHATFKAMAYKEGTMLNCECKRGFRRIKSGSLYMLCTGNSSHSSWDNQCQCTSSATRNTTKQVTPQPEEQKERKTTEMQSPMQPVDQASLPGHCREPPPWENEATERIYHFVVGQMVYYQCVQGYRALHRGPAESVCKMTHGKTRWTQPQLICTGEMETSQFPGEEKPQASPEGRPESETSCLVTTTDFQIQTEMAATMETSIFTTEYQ
Description: SPR, drawn table 'Individual Receptor Subunit Binding', column 'Affinity for IL-2Rα Kd (nM)'. On the technique in general: SPR reads the build-up and loss of mass on a sensor chip optically.

The target in test [2] is T2, human CD122 (IL-2Rβ) (human, UniProt P14784 27-240).
T2 construct: Receptor reagent used in SPR; also called interleukin 2 receptor beta
T2 sequence (looked up): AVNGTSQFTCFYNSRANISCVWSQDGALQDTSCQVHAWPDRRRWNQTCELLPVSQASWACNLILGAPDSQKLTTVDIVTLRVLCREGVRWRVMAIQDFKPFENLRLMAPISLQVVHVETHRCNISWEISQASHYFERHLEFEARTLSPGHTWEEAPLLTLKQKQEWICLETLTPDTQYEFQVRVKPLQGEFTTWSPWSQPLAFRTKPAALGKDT
Description: SPR, drawn table 'Individual Receptor Subunit Binding', column 'Affinity for IL-2Rβ Kd (nM)'.

Test [3] concerns the target T1, human CD25 (IL-2Rα). Description: SPR sensorgram, legend 0.195 to 50 nM. The procedure:
(§1) Binding interactions between proteins using purified preparations or complex mixtures can be examined quantitatively in their native state and can assess binding specificity, stoichiometry, concentration, thermodynamics, kinetics (association, kₐ, and dissociation, kd, rate constants), and overall affinity (equilibrium dissociation constant, KD=kd/kₐ). Sensor chips (CM5) were activated (420 s at a flow rate of 10 μL/min) and 50 μg/mL of Anti-histidine antibody (in Immobilization buffer 10 mM Sodium Acetate (pH4.5)) was injected (420 s at a flow rate of 10 μL/min). For ligand capturing, samples were diluted to 5 μg/mL (HEPES, with 0.005% Tween-20, ph7.4) and injected (flow rate of 10 μL/min) to reach a capture level of ~200 RU. Receptors were diluted and up to 8 concentrations as indicated and injected (flow rate of 30 μL/min) for an association phase of 120 seconds, followed by 300 seconds dissociation.

For test [4], the target named is T2, human CD122 (IL-2Rβ). Briefly: SPR; 1:1 binding fit. Here is the method:
as §1

For test [5], the target named is T1, human CD25 (IL-2Rα). Briefly: SPR; 1:1 binding fit.
The target of test [6] is T2, human CD122 (IL-2Rβ). Description: SPR; 1:1 binding fit. The source holds these as a separate data set.
Test [7] concerns the target T3, γc (CD132, IL-2Rγ, common gamma chain) (human, UniProt P31785 23-369).
T3 sequence (looked up): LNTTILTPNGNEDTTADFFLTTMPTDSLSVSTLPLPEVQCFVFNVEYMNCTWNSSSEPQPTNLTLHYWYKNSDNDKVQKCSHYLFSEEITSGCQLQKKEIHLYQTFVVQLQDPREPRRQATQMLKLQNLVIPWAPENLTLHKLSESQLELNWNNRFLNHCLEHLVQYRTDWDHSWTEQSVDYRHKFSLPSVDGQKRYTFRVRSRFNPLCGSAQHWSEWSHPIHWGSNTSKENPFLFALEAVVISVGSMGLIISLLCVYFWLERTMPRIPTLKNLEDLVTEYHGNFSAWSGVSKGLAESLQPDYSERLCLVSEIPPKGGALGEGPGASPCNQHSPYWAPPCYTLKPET
Description: cell-based or functional assay.

The target of test [8] is T1, human CD25 (IL-2Rα). Briefly: SPR sensorgram, series 62.5 to 1.953 nM. The procedure: as §1
In test [9] the target is T3, γc (CD132, IL-2Rγ, common gamma chain). Description: cell-based or functional assay. The source holds these as a separate data set.
In test [10] the target is T1, human CD25 (IL-2Rα). Description: SPR; steady state affinity.
In test [11] the target is T1, human CD25 (IL-2Rα). Description: SPR sensorgram, no concentration legend.
The target of test [12] is T4, high affinity IL-2 receptor (human IL-2Rα, IL-2Rβ, IL-2Rγ) on HEK-Blue IL-2 reporter cells (human, UniProt P01589 22-272; P14784 27-551; P31785 23-369).
T4 sequence (looked up) 1: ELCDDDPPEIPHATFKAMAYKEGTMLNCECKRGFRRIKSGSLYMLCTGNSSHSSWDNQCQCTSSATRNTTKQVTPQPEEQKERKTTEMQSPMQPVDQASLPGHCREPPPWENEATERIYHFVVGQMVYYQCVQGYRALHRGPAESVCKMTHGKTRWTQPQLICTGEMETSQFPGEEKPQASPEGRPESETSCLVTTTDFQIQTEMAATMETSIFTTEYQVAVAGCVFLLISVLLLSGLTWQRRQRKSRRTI
T4 sequence (looked up) 2: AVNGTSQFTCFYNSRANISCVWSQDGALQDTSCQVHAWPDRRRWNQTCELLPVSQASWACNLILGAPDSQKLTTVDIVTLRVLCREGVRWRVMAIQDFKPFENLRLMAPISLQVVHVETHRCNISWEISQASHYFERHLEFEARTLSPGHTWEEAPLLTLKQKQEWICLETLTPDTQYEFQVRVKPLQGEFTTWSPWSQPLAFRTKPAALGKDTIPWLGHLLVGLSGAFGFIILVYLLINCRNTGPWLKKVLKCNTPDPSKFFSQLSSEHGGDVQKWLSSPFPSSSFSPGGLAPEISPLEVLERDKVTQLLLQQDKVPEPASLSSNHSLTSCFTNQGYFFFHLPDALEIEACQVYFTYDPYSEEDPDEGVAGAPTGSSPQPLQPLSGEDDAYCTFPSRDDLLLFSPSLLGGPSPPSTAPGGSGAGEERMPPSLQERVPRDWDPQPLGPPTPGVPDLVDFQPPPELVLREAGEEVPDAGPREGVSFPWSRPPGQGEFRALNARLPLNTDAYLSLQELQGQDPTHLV
T4 sequence (looked up) 3: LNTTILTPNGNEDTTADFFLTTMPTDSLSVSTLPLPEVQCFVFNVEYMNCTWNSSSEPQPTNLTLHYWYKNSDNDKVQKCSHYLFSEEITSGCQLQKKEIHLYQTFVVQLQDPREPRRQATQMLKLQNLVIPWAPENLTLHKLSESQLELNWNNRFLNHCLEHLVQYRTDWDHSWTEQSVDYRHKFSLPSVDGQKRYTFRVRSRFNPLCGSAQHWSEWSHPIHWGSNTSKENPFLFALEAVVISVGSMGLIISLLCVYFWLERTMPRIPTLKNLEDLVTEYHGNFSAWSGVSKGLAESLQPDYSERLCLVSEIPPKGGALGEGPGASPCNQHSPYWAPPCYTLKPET
Description: cell-based or functional assay.

Test [13] deals with T1, human CD25 (IL-2Rα). Briefly: SPR; steady state affinity. The procedure: as §1
The source holds these as a separate data set.

As a reminder, the Kd is the equilibrium constant for the complex coming apart. A low value points to tighter binding.

As for MDNA109-Fc (Fc fusion), the Kd in the test with human CD25 (IL-2Rα) [1] was 14 nM; with human CD122 (IL-2Rβ) [2], 2.7 nM.

B1: MDNA209FA-Fc (2:1) (Fc fusion)
chain: APTSSSTKKTQLQLEHLRLDLEMILNGINNYKNPKLTRMLTAKFYMPKKATELKHLQCLEEELKPLEEVLNLAQSKNFHFDPRDVVSNINVFVLELKGSETTFMCEYADETATIVEFLNRWITFCTSIIRTLT
notes: MDNA209 plus F42A, fused to Fc; also called TP40451F; not shown: linker (if any) and Fc region
B1: the binding result with human CD25 (IL-2Rα) [3] is “no binding (tested: 50 nM)”. In the test with human CD122 (IL-2Rβ) [4], this molecule had an equilibrium dissociation constant (Kd) of 5.51 nM.

B2: MDNA209(3)-Fc (Fc fusion)
chain: APTSSSTKKTQLQLEHLRLDLEMILNGINNYKNPKLTRMLTFKFYMPKKATELKHLQCLEEELKPLEEVLNLAQSKNFHFDPRDVVSNINVFVLELKGSETTFMCEYADETATIVEFLNRWITFCTSIISTLT
notes: MDNA209(3) (L18R, Q22E, L80F, R81D, L85V, I86V, I92F, Q126T) fused to Fc, made in CHO; not shown: linker (if any) and Fc region
With B2, the Kd in the test with human CD25 (IL-2Rα) [5] was 35.8 nM; with human CD122 (IL-2Rβ) [6], 3.25 nM.

B3: MDNA209FEY-Fc (2:1) (Fc fusion)
chain: APTSSSTKKTQLQLEHLRLDLEMILNGINNYKNPKLTRMLTAKFAMPKKATELKHLQCLEEELKPLEEVLNLAQSKNFHFDPRDVVSNINVFVLELKGSETTFMCEYADETATIVEFLNRWITFCTSIIRTLT
notes: MDNA209 plus F42A, Y45A, fused to Fc; also called TP40452F; not shown: linker (if any) and Fc region
For the molecule B3, the binding result with human CD25 (IL-2Rα) [3] was “no binding (tested: 50 nM)”. Also, in the test with human CD122 (IL-2Rβ) [4], the Kd came to 4.99 nM.

B4: MDNA209FEAA-Fc (2:1) (Fc fusion)
chain: APTSSSTKKTQLQLEHLRLDLEMILNGINNYKNPKLTRMLTAKFYMPKKATELKHLQCLEEALKPLEEVLNLAQSKNFHFDPRDVVSNINVFVLELKGSETTFMCEYADETATIVEFLNRWITFCTSIIRTLT
notes: MDNA209 plus F42A, E62A, fused to Fc; also called MDN209FEAA-Fc; TP36871F; not shown: linker (if any) and Fc region
Consider B4, for which, in [7], the “EC50 (agonist activity), HEK-Blue IL-2 reporter assay” value was over 107 nM and the “Fold against hIL-2 (agonist activity), HEK-Blue IL-2 reporter assay” value is about 2800 fold. Further, the binding result in the test with human CD25 (IL-2Rα) [8] is given as “no binding (tested: 62.5 nM)”. Moreover, the affinity with human CD122 (IL-2Rβ) [4], expressed as Kd, was 4.94 nM.

B5: MDNA209 (free) (ligand)
chain: APTSSSTKKTQLQLEHLRLDLEMILNGINNYKNPKLTRMLTFKFYMPKKATELKHLQCLEEELKPLEEVLNLAQSKNFHFDPRDVVSNINVFVLELKGSETTFMCEYADETATIVEFLNRWITFCTSIIRTLT
As for B5, the figures for the Kd with human CD25 (IL-2Rα) [5] and with human CD122 (IL-2Rβ) [6] were 31.3 nM and 0.537 nM, respectively.

B6: MDNA209(3)FEAA-Fc (2:1) (Fc fusion)
chain: APTSSSTKKTQLQLEHLRLDLEMILNGINNYKNPKLTRMLTAKFYMPKKATELKHLQCLEEALKPLEEVLNLAQSKNFHFDPRDVVSNINVFVLELKGSETTFMCEYADETATIVEFLNRWITFCTSIISTLT
notes: MDNA209(3) (no S130R) plus F42A, E62A, fused to Fc; also called TP36872F; not shown: linker (if any) and Fc region
Turning to B6, the binding result with human CD25 (IL-2Rα) [8] is reported as “no binding (tested: 62.5 nM)”. Further, the “fold decrease in agonist activity, HEK-Blue IL-2 reporter assay” value in test [9] was about 60 fold. The molecule also came in with a dissociation constant (Kd) with human CD122 (IL-2Rβ) [4] of 3.75 nM.

B7: MDNA209(3)FA-Fc (Fc fusion)
chain: APTSSSTKKTQLQLEHLRLDLEMILNGINNYKNPKLTRMLTAKFYMPKKATELKHLQCLEEELKPLEEVLNLAQSKNFHFDPRDVVSNINVFVLELKGSETTFMCEYADETATIVEFLNRWITFCTSIISTLT
notes: MDNA209(3) plus F42A fused to Fc, made in CHO; not shown: linker (if any) and Fc region
On to B7, for which the dissociation constant (Kd) in the test with human CD122 (IL-2Rβ) [6] is 3.79 nM; with human CD25 (IL-2Rα) [10], 4610 nM.

B8: MDNA209FEAA (free) (ligand)
chain: APTSSSTKKTQLQLEHLRLDLEMILNGINNYKNPKLTRMLTAKFYMPKKATELKHLQCLEEALKPLEEVLNLAQSKNFHFDPRDVVSNINVFVLELKGSETTFMCEYADETATIVEFLNRWITFCTSIIRTLT
In the test with human CD122 (IL-2Rβ) [6], B8 returned a Kd of 1.59 nM. Also, in the test with human CD25 (IL-2Rα) [11], the binding result was “no binding”.

B9: MDNA209-Fc (2:1) (Fc fusion)
chain: APTSSSTKKTQLQLEHLRLDLEMILNGINNYKNPKLTRMLTFKFYMPKKATELKHLQCLEEELKPLEEVLNLAQSKNFHFDPRDVVSNINVFVLELKGSETTFMCEYADETATIVEFLNRWITFCTSIIRTLT
notes: IL-2 mutein MDNA209 (L18R, Q22E, L80F, R81D, L85V, I86V, I92F, Q126T, S130R) fused to Fc; (2:1) read as two muteins per Fc dimer; order from the name; also called MDNA209 (2:1) Fc; Construct #8; not shown: linker (if any) and Fc region
Regarding B9, in [12], the “Fold against IL-2-Fc alone, HEK-Blue IL-2 reporter assay, antagonist format” value turned out to be 15.1 fold. In addition, the “fold decrease in Fold against hIL-2, HEK-Blue IL-2 reporter assay, fixed agonist format” value in test [12] is 210 fold. For the same molecule, the Kd with human CD25 (IL-2Rα) [13] is 39.1 nM; in the test with human CD122 (IL-2Rβ) [4], 3.91 nM.

B10: MDNA209FEAA-Fc-A11 (2:1:2) (Fc fusion)
chain: APTSSSTKKTQLQLEHLRLDLEMILNGINNYKNPKLTRMLTAKFYMPKKATELKHLQCLEEALKPLEEVLNLAQSKNFHFDPRDVVSNINVFVLELKGSETTFMCEYADETATIVEFLNRWITFCTSIIRTLT
notes: Bispecific format: IL-2 antagonist mutein with FEAA, Fc, and IL-13 mutein A11; also called Construct #10; not shown: linker (if any), Fc, linker and IL-13 mutein A11
For the molecule B10, the binding result with human CD25 (IL-2Rα) [8] was “no binding (tested: 62.5 nM)”. Further, the Kd with human CD122 (IL-2Rβ) [4] was found to be 4.59 nM.
